Numbering of substitutions follows the chain as printed. Where “and” joins values, the source holds several entries; their conditions need not be identical. Equal values may be shown once.
Tests used:
[1] = target: T1, human BAFF-R expressed on cells (human, UniProt Q96RJ3 1-184); assay: flow cytometry, Raji cells
T1 construct: Cell surface BAFF-R, endogenous on B cell lines and primary B cells or overexpressed on isogenic CHO cells; also called hBAFF-R; hBAFF-R-CHO

human CD64 [2] = target: T2, human CD64 (human, UniProt P12314 16-288, limits assumed); assay: SPR, average
T2 construct: also called FcγRI
Protocol: (§1) Binding analyses as described in this Example were performed using SPR, as described in Example 4.

human FcRn = human FcRn (human, UniProt P55899 24-297; P61769 21-119); assay: SPR, pH 6.0, steady state; pH 6.0; first replicate
[3] = target: T1, human BAFF-R expressed on cells; assay: flow cytometry on hBAFFR-CHO cells, anti-human Fc-g-PE, fold over background
human CD16a V158 [4] = target: T3, human CD16a V158 (human, UniProt P08637 17-208); assay: SPR
T3 construct: also called hCD16aV; hCD16a V158

human CD32b [5] = target: T4, human CD32b (human, UniProt P31994 46-217, limits assumed); assay: SPR, summary table
T4 construct: also called FcγRIIb
T4 sequence (looked up): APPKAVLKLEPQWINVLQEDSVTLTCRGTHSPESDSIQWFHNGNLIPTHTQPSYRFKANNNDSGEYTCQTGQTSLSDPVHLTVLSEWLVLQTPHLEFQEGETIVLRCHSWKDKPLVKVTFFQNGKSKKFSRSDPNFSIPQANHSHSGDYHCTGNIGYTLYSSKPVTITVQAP

human CD16a V158 [6] = target: T3, human CD16a V158; assay: SPR, summary table
human CD64 [7] = target: T2, human CD64; assay: SPR, summary table
human CD32a H131 [8] = target: T5, human CD32a H131 (human, UniProt P12318 36-218, limits assumed); assay: SPR, summary table
T5 sequence (looked up): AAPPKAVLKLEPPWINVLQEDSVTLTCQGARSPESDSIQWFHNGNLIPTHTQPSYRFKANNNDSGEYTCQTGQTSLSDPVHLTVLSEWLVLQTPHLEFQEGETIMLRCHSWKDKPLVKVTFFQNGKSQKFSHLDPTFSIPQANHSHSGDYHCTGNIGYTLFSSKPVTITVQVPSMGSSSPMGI

human CD16b [9] = target: T6, human CD16b (human, UniProt O75015 17-200, limits assumed); assay: SPR, summary table
T6 construct: also called FcγRIIIb

human CD16a F158 = human CD16a F158 (human, UniProt P08637 17-208); assay: SPR, summary table
cynomolgus CD16 [10] = target: T7, cynomolgus CD16 (cynomolgus, UniProt Q8SPW2 17-208, limits assumed); assay: SPR, summary table
T7 construct: also called Cyno CD16; cynomolgus FcγRIII

human CD32a R131 = target: T8, human CD32a R131 (human, UniProt P12318 36-218, limits assumed); assay: SPR, summary table
T8 construct: also called FcγRIIa R131
T8 sequence (looked up): T5 sequence (looked up) with H132R

human CD64 [11] = target: T2, human CD64; assay: SPR
Protocol: as §1

[12] = target: T1, human BAFF-R expressed on cells; assay: flow cytometry, human BAFF-R CHO cells
Source text: Isogenic cell lines overexpressing human and cynomolgus BAFF-R on the backbone of CHO cell line were designed.

human CD16b [13] = target: T6, human CD16b; assay: SPR, steady state
[14] = target: T9, cynomolgus NKG2D (recombinant mFc-tagged dimer) (cynomolgus, UniProt P61252 78-216); assay: SPR, steady state fit
T9 construct: also called cyno NKG2D
T9 sequence (looked up): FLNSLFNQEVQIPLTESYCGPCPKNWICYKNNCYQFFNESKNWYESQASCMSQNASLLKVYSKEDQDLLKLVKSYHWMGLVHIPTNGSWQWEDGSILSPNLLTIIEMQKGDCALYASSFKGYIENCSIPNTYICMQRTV
Source text: Two different fits were utilized to obtain the equilibrium affinity data: steady state affinity fit and kinetic fit.

[15] = target: T10, human NKG2D (recombinant mFc-tagged dimer) (human, UniProt P26718 78-216); assay: SPR, average
T10 construct: also called hNKG2D
T10 sequence (looked up): T9 sequence (looked up) with N38D, I128T
Source text: NKG2D is a native dimer, therefore recombinant mFc-tagged NKG2D dimer was used for this experiment. Two different fits were utilized to obtain the equilibrium affinity data: steady state affinity fit and kinetic fit.

human CD32b [16] = target: T4, human CD32b; assay: SPR, steady state, average
[17] = target: T11, cynomolgus monkey BAFF-R expressed on cells (cynomolgus monkey); assay: flow cytometry, cyno BAFF-R CHO cells
T11 construct: whole, on cells; also called cBAFF-R; cynoBAFF-R

human CD32a H131 [18] = target: T5, human CD32a H131; assay: SPR, steady state, average
cynomolgus CD16 [19] = target: T7, cynomolgus CD16; assay: SPR, average

T7 sequence (Q8SPW2 17-208 limits assumed): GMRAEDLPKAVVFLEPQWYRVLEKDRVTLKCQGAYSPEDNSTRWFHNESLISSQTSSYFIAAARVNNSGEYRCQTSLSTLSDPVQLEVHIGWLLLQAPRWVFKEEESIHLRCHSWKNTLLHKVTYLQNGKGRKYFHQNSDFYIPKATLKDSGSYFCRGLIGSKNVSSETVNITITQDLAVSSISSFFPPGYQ
T2 sequence (P12314 16-288 limits assumed): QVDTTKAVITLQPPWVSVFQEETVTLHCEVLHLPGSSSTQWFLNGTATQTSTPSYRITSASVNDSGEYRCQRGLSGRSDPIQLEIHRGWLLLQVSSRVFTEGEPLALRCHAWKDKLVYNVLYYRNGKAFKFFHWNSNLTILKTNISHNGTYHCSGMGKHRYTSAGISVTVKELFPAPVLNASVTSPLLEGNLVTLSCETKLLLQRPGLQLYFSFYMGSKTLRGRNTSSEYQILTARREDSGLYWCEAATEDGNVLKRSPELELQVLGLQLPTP
T6 sequence (O75015 17-200 limits assumed): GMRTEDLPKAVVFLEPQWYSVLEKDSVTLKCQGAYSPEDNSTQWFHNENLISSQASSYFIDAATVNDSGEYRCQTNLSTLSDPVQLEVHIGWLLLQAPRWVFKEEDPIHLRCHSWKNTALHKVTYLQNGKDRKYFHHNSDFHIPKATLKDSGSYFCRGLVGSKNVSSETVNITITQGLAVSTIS
T3 sequence (P08637 17-208 F176V limits assumed): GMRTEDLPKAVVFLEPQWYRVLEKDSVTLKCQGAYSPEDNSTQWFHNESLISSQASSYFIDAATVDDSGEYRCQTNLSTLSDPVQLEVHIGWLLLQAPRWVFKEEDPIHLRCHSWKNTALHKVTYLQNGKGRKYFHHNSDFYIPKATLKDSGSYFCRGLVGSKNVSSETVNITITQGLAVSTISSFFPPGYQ
Chain of human CD16a F158 (P08637 17-208 limits assumed): as the sequence (P08637 17-208 F176V limits assumed) above, with V160F counted along it

EC50 [1]: 0.18 nM
Max FOB [1]: 10 fold over background
Kd (human CD64 [2]): 3.2 nM
koff (human CD64 [2]): 0.00023 s⁻¹
kon (human CD64 [2]): 73000 M⁻¹ s⁻¹
Kd (human FcRn): 1000 nM
EC50 (read off the curve) [3]: ~0.8 nM
koff (human CD16a V158 [4]): 0.014 s⁻¹ and 0.013 s⁻¹
kon (human CD16a V158 [4]): 110000 M⁻¹ s⁻¹ and 100000 M⁻¹ s⁻¹
Kd (human CD32b [5]): 5900 nM
Kd (human CD16a V158 [6]): 129 nM
Kd (human CD64 [7]): 3.2 nM
Kd (human CD32a H131 [8]): 1000 nM
Kd (human CD16b [9]): 6900 nM
Kd (human CD16a F158): 1350 nM
Kd (cynomolgus CD16 [10]): 271 nM
Kd (human CD32a R131): 1400 nM
Kd (human CD64 [11]): 2.9 nM and 3.1 nM and 3.4 nM and 3.2 nM
koff (human CD64 [11]): 0.00022 s⁻¹ and 0.00023 s⁻¹
kon (human CD64 [11]): 77000 M⁻¹ s⁻¹ and 73000 M⁻¹ s⁻¹ and 69000 M⁻¹ s⁻¹ and 72000 M⁻¹ s⁻¹
EC50 [12]: 0.9 nM
Max FOB [12]: 85 fold over background
Kd (human CD16b [13]): 7000 nM and 6300 nM and 7900 nM and 6400 nM
Kd [14]: 618 nM and 630 nM and 589 nM and 600 nM
koff [15]: 0.11 s⁻¹
kon [15]: 240000 M⁻¹ s⁻¹
Kd (human CD32b [16]): 5900 nM
EC50 [17]: 1.85 nM
Kd (human CD32a H131 [18]): 1000 nM
koff (cynomolgus CD16 [19]): 0.021 s⁻¹
kon (cynomolgus CD16 [19]): 76000 M⁻¹ s⁻¹
B1: AB1424/AB1612 F3′ TriNKET (bispecific antibody, human IgG1, kappa)
chain: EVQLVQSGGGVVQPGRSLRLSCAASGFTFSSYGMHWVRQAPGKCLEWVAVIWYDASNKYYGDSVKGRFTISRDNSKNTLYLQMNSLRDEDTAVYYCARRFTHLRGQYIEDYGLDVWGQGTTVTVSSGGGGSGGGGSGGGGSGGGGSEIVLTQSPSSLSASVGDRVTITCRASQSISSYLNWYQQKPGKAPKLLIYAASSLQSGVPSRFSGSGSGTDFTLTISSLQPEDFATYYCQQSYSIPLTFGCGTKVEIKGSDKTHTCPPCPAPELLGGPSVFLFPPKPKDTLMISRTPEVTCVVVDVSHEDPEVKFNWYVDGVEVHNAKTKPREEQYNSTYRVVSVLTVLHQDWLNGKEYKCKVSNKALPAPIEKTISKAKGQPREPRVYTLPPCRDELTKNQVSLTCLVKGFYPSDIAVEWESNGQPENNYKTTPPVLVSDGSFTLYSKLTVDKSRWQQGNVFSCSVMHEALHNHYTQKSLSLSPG
heavy: EVQLVESGGGLVKPGGSLRLSCAASGFTFSSYSMNWVRQAPGKGLEWVSSISSSSSYIYYADSVKGRFTISRDNAKNSLYLQMNSLRAEDTAVYYCARGAPIGAAAGWFDPWGQGTLVTVSSASTKGPSVFPLAPSSKSTSGGTAALGCLVKDYFPEPVTVSWNSGALTSGVHTFPAVLQSSGLYSLSSVVTVPSSSLGTQTYICNVNHKPSNTKVDKKVEPKSCDKTHTCPPCPAPELLGGPSVFLFPPKPKDTLMISRTPEVTCVVVDVSHEDPEVKFNWYVDGVEVHNAKTKPREEQYNSTYRVVSVLTVLHQDWLNGKEYKCKVSNKALPAPIEKTISKAKGQPREPQVCTLPPSRDELTENQVSLTCLVKGFYPSDIAVEWESNGQPENNYKTTPPVLDSDGSFFLYSWLTVDKSRWQQGNVFSCSVMHEALHNHYTQKSLSLSPG
light: DIQMTQSPSSVSASVGDRVTITCRASQGISSWLAWYQQKPGKAPKLLIYAASSLQSGVPSRFSGSGSGTDFTLTISSLQPEDFATYYCQQGVSFPRTFGGGTKVEIKRTVAAPSVFIFPPSDEQLKSGTASVVCLLNNFYPREAKVQWKVDNALQSGNSQESVTEQDSKDSTYSLSSTLTLSKADYEKHKVYACEVTHQGLSSPVTKSFNRGEC
notes: Chain S: anti-BAFF-R scFv-CH2-CH3; chain H: anti-NKG2D VH-CH1-CH2-CH3; chain L: anti-NKG2D VL-CL; also called AB1612-002

— patent publication US20240360223A1 (DRAGONFLY THERAPEUTICS, published 2024)
